Biological target: LFA1 receptor on T cells (human) (UniProt P20701)
Test: cell-based or functional assay

Sequence of UniProt P20701 (P20701 26-1170, chain 1 of 2): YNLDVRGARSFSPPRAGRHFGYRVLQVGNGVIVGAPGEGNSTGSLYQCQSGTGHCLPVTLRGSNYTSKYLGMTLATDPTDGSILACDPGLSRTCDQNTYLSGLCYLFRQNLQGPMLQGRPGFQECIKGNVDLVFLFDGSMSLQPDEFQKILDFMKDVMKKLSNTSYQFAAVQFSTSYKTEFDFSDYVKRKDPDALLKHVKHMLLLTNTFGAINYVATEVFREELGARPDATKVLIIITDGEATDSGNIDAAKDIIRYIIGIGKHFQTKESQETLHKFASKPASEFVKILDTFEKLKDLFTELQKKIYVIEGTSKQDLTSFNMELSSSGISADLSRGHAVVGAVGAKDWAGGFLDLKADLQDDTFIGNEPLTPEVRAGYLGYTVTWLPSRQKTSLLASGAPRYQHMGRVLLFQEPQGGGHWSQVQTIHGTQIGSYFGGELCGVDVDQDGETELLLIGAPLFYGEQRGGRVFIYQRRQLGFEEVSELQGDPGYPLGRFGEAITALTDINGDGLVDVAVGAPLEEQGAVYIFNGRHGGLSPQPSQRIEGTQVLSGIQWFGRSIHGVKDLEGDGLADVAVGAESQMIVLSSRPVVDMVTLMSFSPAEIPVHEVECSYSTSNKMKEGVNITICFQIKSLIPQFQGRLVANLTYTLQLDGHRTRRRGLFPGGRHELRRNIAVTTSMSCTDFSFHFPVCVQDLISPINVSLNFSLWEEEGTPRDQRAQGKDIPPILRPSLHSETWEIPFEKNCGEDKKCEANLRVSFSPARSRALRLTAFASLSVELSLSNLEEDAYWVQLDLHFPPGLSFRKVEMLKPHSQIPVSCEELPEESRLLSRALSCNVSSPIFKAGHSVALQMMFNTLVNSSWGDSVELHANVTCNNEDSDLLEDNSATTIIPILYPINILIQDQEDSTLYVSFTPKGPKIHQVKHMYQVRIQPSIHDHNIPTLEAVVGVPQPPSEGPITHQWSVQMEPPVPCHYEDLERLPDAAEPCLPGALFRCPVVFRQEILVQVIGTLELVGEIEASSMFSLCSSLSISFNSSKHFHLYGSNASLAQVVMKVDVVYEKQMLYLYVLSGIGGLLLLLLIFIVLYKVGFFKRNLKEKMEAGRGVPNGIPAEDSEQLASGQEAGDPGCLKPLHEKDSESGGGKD
Sequence of UniProt P20701 (P05107 23-769, chain 2 of 2, further chain): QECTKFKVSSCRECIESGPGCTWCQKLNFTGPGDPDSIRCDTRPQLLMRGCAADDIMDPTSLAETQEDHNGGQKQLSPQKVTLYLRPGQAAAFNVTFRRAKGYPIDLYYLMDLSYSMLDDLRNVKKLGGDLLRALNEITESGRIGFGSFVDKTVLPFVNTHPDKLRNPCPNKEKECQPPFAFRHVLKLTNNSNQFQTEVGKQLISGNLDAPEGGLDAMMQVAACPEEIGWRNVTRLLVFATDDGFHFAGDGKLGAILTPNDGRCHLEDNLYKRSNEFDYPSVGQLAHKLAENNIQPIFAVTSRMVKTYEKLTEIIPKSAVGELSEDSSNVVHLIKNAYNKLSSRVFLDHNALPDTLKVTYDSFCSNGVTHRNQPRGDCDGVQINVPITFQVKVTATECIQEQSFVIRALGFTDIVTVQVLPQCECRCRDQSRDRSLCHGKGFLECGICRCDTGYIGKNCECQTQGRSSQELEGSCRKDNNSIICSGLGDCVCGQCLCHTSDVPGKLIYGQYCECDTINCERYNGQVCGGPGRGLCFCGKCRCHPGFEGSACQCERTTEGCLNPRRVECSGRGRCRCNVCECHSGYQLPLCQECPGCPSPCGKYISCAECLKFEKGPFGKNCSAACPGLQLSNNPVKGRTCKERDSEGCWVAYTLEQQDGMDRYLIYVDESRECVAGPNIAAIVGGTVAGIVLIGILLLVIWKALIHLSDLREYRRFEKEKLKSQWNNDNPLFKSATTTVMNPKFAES

IFN-γ secretion (ELISA) by CD4+ T cells stimulated with IL12, IL18 and TL1A after pretreatment with LFA1 blocking antibody, compared to IgG control antibody: 43 % reduction
Substance: anti-LFA1 (TS1/18) monoclonal antibody

Reference: patent publication US12618111
